Laboratory results reported in the supplement of paper PMC9112550, “Optimization of the antimicrobial peptide Bac7 by deep mutational scanning” (BMC Biology, 2022).

tested on: Escherichia coli TOP10; test: shrunken log2 fold change of peptide-encoding DNA abundance (4.5 h post-induction vs induction); higher = less antimicrobial activity (less host growth inhibition); conditions: time post-induction: 4.5 h; library: site-saturation at positions 5, 18, 19, 20
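Note: peptides expressed intracellularly from a pBAD plasmid library in pooled LB shake-flask culture, induced with 0.3% L-arabinose, DNA abundance read by NGS, three biological replicates, DESeq2 with apeglm shrinkage.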

| Sequence | shrunken log2 fold change |
| --- | --- |
| RRIRGRPPRLPRPRPRPHQGPRP | -0.0236 |
| RRIRGRPPRLPRPRPRPHRAPRP | 0.108 |
| RRIRGRPPRLPRPRPRPHRTPRP | 0.271 |
| RRIRGRPPRLPRPRPRPHRWPRP | 0.252 |
| RRIRGRPPRLPRPRPRPHSYPRP | 0.231 |
| RRIRGRPPRLPRPRPRPHTCPRP | 0.104 |
| RRIRGRPPRLPRPRPRPHYNPRP | -0.265 |
| RRIRGRPPRLPRPRPRPHYQPRP | -0.15 |
| RRIRGRPPRLPRPRPRPIASPRP | 0.524 |
| RRIRGRPPRLPRPRPRPICEPRP | 0.396 |
| RRIRGRPPRLPRPRPRPICHPRP | 0.378 |
| RRIRGRPPRLPRPRPRPIDAPRP | 0.674 |
| RRIRGRPPRLPRPRPRPIDVPRP | 0.0296 |
| RRIRGRPPRLPRPRPRPIDYPRP | -0.0822 |
| RRIRGRPPRLPRPRPRPIEYPRP | 0.0165 |
| RRIRGRPPRLPRPRPRPIFKPRP | 0.359 |
| RRIRGRPPRLPRPRPRPIHLPRP | -0.0773 |
| RRIRGRPPRLPRPRPRPIIAPRP | 0.571 |
| RRIRGRPPRLPRPRPRPIIPPRP | -0.212 |
| RRIRGRPPRLPRPRPRPIIWPRP | 0.392 |
| RRIRGRPPRLPRPRPRPILFPRP | 0.257 |
| RRIRGRPPRLPRPRPRPILHPRP | 0.0775 |
| RRIRGRPPRLPRPRPRPILVPRP | 0.133 |
| RRIRGRPPRLPRPRPRPIMDPRP | 0.0794 |
| RRIRGRPPRLPRPRPRPIMLPRP | 2.36 |

| Sequence | shrunken log2 fold change |
| --- | --- |
| RRIRGRPPRLPRPRPRPIMSPRP | 0.0881 |
| RRIRGRPPRLPRPRPRPINDPRP | -0.211 |
| RRIRGRPPRLPRPRPRPINHPRP | -0.0462 |
| RRIRGRPPRLPRPRPRPINPPRP | -0.0416 |
| RRIRGRPPRLPRPRPRPINWPRP | 0.193 |
| RRIRGRPPRLPRPRPRPIQCPRP | 0.0816 |
| RRIRGRPPRLPRPRPRPIQEPRP | 0.416 |
| RRIRGRPPRLPRPRPRPIQRPRP | 0.0933 |
| RRIRGRPPRLPRPRPRPIQTPRP | 0.0411 |
| RRIRGRPPRLPRPRPRPIRFPRP | 0.0151 |
| RRIRGRPPRLPRPRPRPIRKPRP | 0.124 |
| RRIRGRPPRLPRPRPRPIRRPRP | 0.346 |
| RRIRGRPPRLPRPRPRPIRVPRP | -0.189 |
| RRIRGRPPRLPRPRPRPISCPRP | 0.279 |
| RRIRGRPPRLPRPRPRPITAPRP | 0.236 |
| RRIRGRPPRLPRPRPRPITKPRP | -0.0602 |
| RRIRGRPPRLPRPRPRPITMPRP | -0.0891 |
| RRIRGRPPRLPRPRPRPIVPPRP | 0.02 |
| RRIRGRPPRLPRPRPRPIWYPRP | -0.114 |
| RRIRGRPPRLPRPRPRPIYIPRP | -0.0529 |
| RRIRGRPPRLPRPRPRPKAYPRP | 0.12 |
| RRIRGRPPRLPRPRPRPKDSPRP | 0.244 |
| RRIRGRPPRLPRPRPRPKDVPRP | -0.0336 |
| RRIRGRPPRLPRPRPRPKERPRP | 0.00594 |
| RRIRGRPPRLPRPRPRPKFVPRP | 0.458 |

| Sequence | shrunken log2 fold change |
| --- | --- |
| RRIRGRPPRLPRPRPRPKGDPRP | 0.0175 |
| RRIRGRPPRLPRPRPRPKHHPRP | 0.309 |
| RRIRGRPPRLPRPRPRPKKLPRP | 0.39 |
| RRIRGRPPRLPRPRPRPKKYPRP | 0.119 |
| RRIRGRPPRLPRPRPRPKLEPRP | 0.507 |
| RRIRGRPPRLPRPRPRPKMEPRP | 0.582 |
| RRIRGRPPRLPRPRPRPKMRPRP | 1.33 |
| RRIRGRPPRLPRPRPRPKMYPRP | 0.107 |
| RRIRGRPPRLPRPRPRPKNHPRP | 0.179 |
| RRIRGRPPRLPRPRPRPKNLPRP | 0.121 |
| RRIRGRPPRLPRPRPRPKPKPRP | 0.601 |
| RRIRGRPPRLPRPRPRPKQSPRP | 0.887 |
| RRIRGRPPRLPRPRPRPKRLPRP | 0.217 |
| RRIRGRPPRLPRPRPRPKRQPRP | 0.377 |
| RRIRGRPPRLPRPRPRPKRSPRP | 0.301 |
| RRIRGRPPRLPRPRPRPKSWPRP | 0.925 |
| RRIRGRPPRLPRPRPRPKVRPRP | 0.105 |
| RRIRGRPPRLPRPRPRPKVSPRP | 0.787 |
| RRIRGRPPRLPRPRPRPKWIPRP | 0.118 |
| RRIRGRPPRLPRPRPRPKWKPRP | 0.202 |
| RRIRGRPPRLPRPRPRPKWTPRP | 0.392 |
| RRIRGRPPRLPRPRPRPKYAPRP | 0.501 |
| RRIRGRPPRLPRPRPRPKYKPRP | 0.0104 |
| RRIRGRPPRLPRPRPRPKYPPRP | 0.0365 |
| RRIRGRPPRLPRPRPRPLAPPRP | 0.998 |
